Data as given in US20050154189A1 (MAXYGEN, published 2005).
Numbering of substitutions follows the chain as printed.

B1: Round 2 CTLA4BP 2x4-h11 (ligand)
chain: VIHVTKEVKEVATLSCGHNVSVEELAQTRIYWQKEKKMVLTMMSGDMNIWPEYKNRTIFDITNNLSIVILALRPSDEGTYECVVLEYEKDAFKREHLAEVMLSVKADFPTPSISDFEIPPSNIRRIICSTSGGFPEPHLSWLENGEELNAINTTVSQDPGTELYAVSSKLDFNMTTNHSFMCLIKYGHLRVNQTFNWNTPKQEHFPDNLLPSWAITLISVNGIFVICCLAYCFAPRCRGRRRNERLRRESVRPV
B2: Round 2 CTLA4BP-5x2-2g (ligand)
chain: VIHVTKEVKEVATLSCGHNVSVEELAQTRIHWQKEKKMVLTMMSGDMNIWPEYKNRTIFDITNNLSIVILALRPSDEGTYECVVLKYEKDAFKREHLAEVMLSVKADFPTPSITDFEIPTSNIRRIICSTSGGFPEPHLSWLENGEELNAINTTVSQDPETELYTVSSKLDFNMTTNHSFMCLIKYGHLRVNQTFNWNTPKQEHFPDNLLPSWAITLISVNGIFVICCLTYRFAPRCRERKSNERLRRESVRPV
B3: Round 2 CTLA4BP 5x1-d7 (ligand)
chain: VIHVTKEVKEVATLSCGHNVPVEELAQTRIYWQKEKKMVLTMMSGDMNIWPEYKNRTIFDITNNLSIVILALRPSDEGTYGCVVLEYEKDAFKREHLAEVMLSVKADFPTPSITDLEIPPSNIRRIICSTSGGFPEPHLFWLENGEELNAINTTASQDPETELYAVSSKLDFNMTTNHSFMCLIKYGHLRVNQTFNWNTPKQEHFPDNLLPSWAITLISANGIFVICCLTYCFAPRCRERRRNERLRRESVHPV
B4: Round 2 CTLA4BP 5x2-d7 (ligand)
chain: B2 chain with V4M, H18L, T114S, T120P, E162G, R232C, K241R, S242R
B5: Round 2 CTLA4BP-5x2-4c (ligand)
chain: B1 chain with H18L, A150G, G160E, A165T, H178R, M181V, A230T, G239E, R252H
B6: Round 2 CTLA4BP 5x2-h11 (ligand)
chain: VIHVTKKVKEVATLSCGHNVSVEELAQTRIYWQKGKKMVLTMMSGDMNIWPECKNRTIFDITNNLSIVILALRPSDEGTYECAVLKYEKDAFKREHLAEVTLSVKADFPTPSISDFEIPTSNIRRIICSTSGGFPEPHLFWLENGEELNAINTTASQDPETELYAVSSKLDFNMTTNHSFMCLIKYGHLRVNQTFNWNTPKQEHFPDNLLPSWAITLISVNGIFVICCLTYCFAPRCRERKSNERLRRESVRPV
B7: Round 2 CTLA4BP 5x5-h12 (ligand)
chain: B1 chain with E7K, Y31H, E86K, A165T, N177D, H178R, M181V, A230T, G239E, E244G
B8: Round 2 CTLA4BP 5x2-f3 (ligand)
chain: VIHVTKEVKEVATLSCGHNVSVEELAQTRIYWQKEKKMVLTMMPGDMNIWPEYKNRTIFDITNNLSIVILALRPSDEGTYECVVLRYEKDAFKREHLAEVTLSVKADFPTPSISDFEIPTSNIRRIICSTSGGFPEPHLSWLENGEELNAINTTASQDPETELYTVSSKLDFNMTTNRSFVCLIKYGHLRVNQTFNWNTPKQEHFPDNLLPSWAITLISANGIFVICCLTHCFAPRCRERKSNERLRRESVRPV
B9: Round 2 CTLA4BP 5x2-b7 (ligand)
chain: B2 chain with M101T, T120P, E160G, T176A, M181V, V220A, R232C, K241R, S242R
B10: Round 2 CTLA4BP-5x2-7b (ligand)
chain: B2 chain with M101T, D107G, T120P, E160G, T176A, M181V, V220A, R232C, K241R, S242R
B11: Round 2 CTLA4BP 5x3-c3 (ligand)
chain: B1 chain with V4M, H18P, E86K, M101T, P120T, A165T, A230T, Y231H, G239E, R252C
B12: Round 2 CTLA4BP-5x2-3c (ligand)
chain: B2 chain with K6R, T114S, E162G, R232C, K241R, S242R, R252C
B13: Round 2 CTLA4BP 5x6-f6 (ligand)
chain: B2 chain with R29P, H31Y, T120P, S140F, H178R, M181V, V220A, K241R, S242R, R252C
B14: Round 2 CTLA4BP-5X2-12F (ligand)
chain: B2 chain with M101T, T120P, R124K, L209P, V220A, R232C, K241R, S242R, R245T
B15: Round 2 CTLA4BP 5x2-e12 (ligand)
chain: VIHVTKEVKEVATLSCGHNVSVEELAQTRIHWQKEKKMVLTMMSGGMNIWPEYKNRTIFDITNNLSIVILALRPSDEGTYECVVLKYEKDAFKREHLAEVTLSVKADFPTPSISDFEIPTSNIRRIICSTSGGFPEPHLSWLENGEELNAISTTVSQDPGTELYAVSSKLDFNMTTNRSFVCLIKYGHLRVNQTFNWNTTKQEHFPDNLLPSWAITLISVNGIFVICCLTYCFAPRCRERRRNERLRRESVRPV
B16: Round 2 CTLA4BP 5x3-e8 (ligand)
chain: VIHVTKEVKEVATLSCGHNVSVEELAQTRIYWQKEKKMVLTMMSGDMNIWPEYKNRTIFDITNNLSIVILALRPSDEGTYECVVLEYEKDAFKREHLAEVTLSVKADFPTPSISDFEIPTSNIRRIICSTSGGFPEPHLFWLENGEELNAINTTVSQDPETELYTVSSKLDFNMTANHSFVCLIKYGHLRVNQTFNWNTPKQEHFPDNLLPSWAITLISVNGIFVICCLTYCFAPGCRERRRNERLRRESVCPV
B17: Round 2 CTLA4BP 5x4-a1 (ligand)
chain: B15 chain with H31Y, G46D, Y53H, S114T, S152N, A165T, T200P
B18: Round 2 CTLA4BP 5x9-d10 (ligand)
chain: B1 chain with H18L, E35G, V155A, A165T, A230T, Y231H, G239E, V251A
B19: Round 2 CTLA4BP 5x3-c4 (ligand)
chain: VIHVTKEVKEVATLSCGHNVSVEELAQTRIYWQKEKKMVLTMMSGDMNIWPEYKNRTIFDITNNLSIVILALRPSDEGTYECVVLKYEKDAFKREHLAEVTLSVKADFPTPSISDFEIPPSNIRRIICSTSGGFPEPRLAWMEDGEELNAINTTASQDPETELYTVSSKLDFNMTTNRSFVCLIKYGHLRVNQTFNWNTPKQEHFPDNLFPSWAITLISVNGIFVICCLTYCFAPRCRERRRNERLRRESVRPV
B20: Round 2 CTLA4BP-5x3-10e (ligand)
chain: B3 chain with P21S, G81E, M101T, T114S, L116F, A155V, R241K, R242S
B21: Round 2 CTLA4BP 5x4-h1 (ligand)
chain: VIHVTKEVKEVATLSCGHNVSVEELAQTRIHWQKEKKMVLTMMSGDMNIWPEYKNRTIFDITNNLSIVILALRPSDEGTYECVVLKYEKDAFKRKHLAEVMLSVKADFPTPSISDFEIPTSNIRRIICSTSGGFPEPHLFWLENGEELNAINTTASQDPETELYTVSSKLDFNMTTNRSFVCLIKYGHLRVNQTFNWNTPKQEHFPNNLLPSWAITLISVNGIFVICCLTYCFAPRCRERRRNETLRRESVHPV
B22: Round 2 CTLA4BP-5x3-6f (ligand)
chain: B2 chain with H31Y, E35G, K86E, T114S, V155A, V220A, T230A, R232C, R236G
B23: Round 2 CTLA4BP-5x2-8c (ligand)
chain: B3 chain with V4M, P21S, G81E, E86K, R94Q, L116F, A155V, M181V
B24: Round 2 CTLA4BP 5x5-c10 (ligand)
chain: B3 chain with P21S, G81E, M101T, L116F, N152S, A155V, P200T, A220V
B25: Round 2 CTLA4BP 5x1-f1 (ligand)
chain: B16 chain with H18L, Y53H, E86K, S114T, T120P, V155A, G236R, R245T, C252R

Biological target: T1, Soluble CTLA-4-Ig (human, UniProt P16410 36-161, FITC-conjugated in the two-colour FACS assays; unlabelled and detected with FITC goat anti-human IgG in the concentration-dependent assay)
T1 construct: extracellular domain; Bought from R&D Systems; also called sCTLA-4-Ig; CTLA-4-Ig Fc; not shown: Fc portion of human IgG1
T1 sequence (P16410 36-161): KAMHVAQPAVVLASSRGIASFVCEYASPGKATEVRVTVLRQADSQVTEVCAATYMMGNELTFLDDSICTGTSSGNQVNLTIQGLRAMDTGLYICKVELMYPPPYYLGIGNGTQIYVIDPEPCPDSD
Test: two-colour FACS profile on transfected cells; score of preference for CTLA-4-Ig over CD28-Ig vs WT hB7-1

Row | Binder | Binding Score
1 | B1 | 0
2 | B2 | 2
3 | B3 | 1
4 | B4 | 1
5 | B5 | 1
6 | B6 | 1
7 | B7 | 1
8 | B8 | 0
9 | B9 | 1
10 | B10 | 1
11 | B11 | 1
12 | B12 | 2
13 | B13 | 1
14 | B14 | 1
15 | B15 | 0
16 | B16 | 1
17 | B17 | 0
18 | B18 | 1
19 | B19 | 1
20 | B20 | 2
21 | B21 | 2
22 | B22 | 2
23 | B23 | 2
24 | B24 | 1
25 | B25 | 1
